According to patent US20180194833A1 (H LUNDBECK A S, published 2018):

Assays:
Human alpha-synuclein = Human alpha-synuclein (human, UniProt P37840 1-140); assay: SPR (BIAcore 3000), antibody captured by goat anti-human IgG, human alpha-synuclein 3.125-100 nM as analyte
Description: Goat anti-human IgG was immobilized on the CM5 chip. […] The sensor surface was regenerated between each cycle.

Mouse alpha-synuclein = Mouse alpha-synuclein (mouse, UniProt O55042 1-140); assay: Fortebio Octetred

Row | binding result (Human alpha-synuclein) | binding result (Mouse alpha-synuclein) | Binder
1 | binds |  | Comparator antibody 9E4 (antibody, human IgG1, kappa, V domains shown, also called h9E4; human 9E4) VH: EVQLVESGGGLVQPGGSLRLSCAASGFTFSNYGMSWVRQAPGKGLEWVASISSGGGSTYYPDNVKGRFTISRDNAKNSLYLQMNSLRAEDTAVYYCARGGAGIDYWGQGTLVTVSS VL: DIQMTQSPSSLSASVGDRVTITCKSIQTLLYSSNQKNYLAWFQQKPGKAPKLLIYWASIRKSGVPSRFSGSGSGTDFTLTISSLQPEDLATYYCQQYYSYPLTFGGGTKLEIKR
2 |  | binds | GM37 (antibody, human IgG1, kappa, V domains shown, also called GM37 wild type (wt); GM37wt) VH: EVQLLESGGGLVQTGGSLRLSCAASGFTFSSYAMTWVRQAPGKGLEWVSAIRSNGDRTDYADSVKGRFTISRDNSQNTLYLQMNSLRAEDTAVYYCAKNWAPFDSWGQGTLVTVSS VL: not shown
3 |  | binds | GM285 (antibody, human IgG1, kappa, V domains shown, also called mab285) VH: EVQLLESGGGLVQPGGSLRLSCAASGFTFSRFTMTWVRQAPGKGLEWVSAISGSGGGTSYADSVKGRLTVSRDNSKNTLYLQMNSLRAEDTAVYYCAKNWAPFDYWGQGTLVTVSS VL: not shown
